We go through ten molecules from patent US20210169936A1 (AFFIMED, published 2021).

For assay [1], the target named is T1, CD16A on primary human NK cells (human, UniProt P08637).
T1 construct: full length, on the cell surface; also called FcgRIIIA on enriched human NK cells
The assay can be described thus: flow cytometry on primary human NK cells at 37 °C, with 10 mg/mL polyclonal human IgG; anti-His mAb and FITC goat anti-mouse IgG. In general terms: Flow cytometry measures light scatter and fluorescence of single cells or particles in a stream.

The target in assay [2] is human CD16A(48R, 158V) ECD fused to monomeric mFc.67 (human) (UniProt P08637). The assay can be described thus: ELISA, coated antigen-mFc. On the technique in general: An ELISA detects its analyte on a solid surface through an enzyme-linked reagent.
For assay [3], the target named is human CD16B(NA1) ECD, mature form (without propeptide), fused to monomeric Fc (human) (UniProt O75015). The assay can be described thus: ELISA, coated antigen-mFc.
The target of assay [4] is Cynomolgus CD16A fused to IgG Fc (cynomolgus; human) (UniProt Q8SPW2). The assay can be described thus: ELISA, coated antigen-IgG Fc.
For assay [5], the target named is Human CD16A^(48R, 158V) fused to IgG Fc (human) (UniProt P08637). The assay can be described thus: ELISA, coated antigen-IgG Fc.
Assay [6] has as its target Human CD16A^(48R, 158F) fused to IgG Fc (human) (UniProt P08637). The assay can be described thus: ELISA, coated antigen-IgG Fc.
The target of assay [7] is T1, CD16A on primary human NK cells. The assay can be described thus: flow cytometry on primary human NK cells at 37 °C, without IgG; anti-His mAb and FITC goat anti-mouse IgG.
The target of assay [8] is Human CD16B^H140Y fused to IgG Fc (human) (UniProt O75015). Nature of the assay: ELISA, coated antigen-IgG Fc.
Assay [9] deals with T2, propeptide-containing ECD of CD16B(NA1) expressed on the CHO cell surface (human, UniProt O75015 17-208).
T2 construct: extracellular domain; not shown: membrane anchor: transmembrane domain of human EGFR or GPI anchor
Nature of the assay: binding to recombinant CHO cells.

The target in assay [10] is T3, mature ECD of CD16B(NA1) expressed on the CHO cell surface (human, UniProt O75015 17-200).
T3 construct: mature; not shown: membrane anchor: transmembrane domain of human EGFR or GPI anchor
The assay can be described thus: binding to recombinant CHO cells.

The target of assay [11] is T4, recombinant EGFR expressed on CHO cells (specificity control) (UniProt P00533 25-1210, limits assumed).
T4 construct: whole, on cells; also called control EGFR antigen
The assay can be described thus: flow cytometry, MFI in cell binding to recombinant CHO cells; antigen EGFRTM anchored.

Assay [12] has as its target T1, CD16A on primary human NK cells. Nature of the assay: flow cytometry on primary human NK cells at 37 °C, without IgG; anti-His mAb and FITC goat anti-mouse IgG. This is another data set of the same source.
Method: (§1) After the last staining step, the cells were washed again and resuspended in 0.2 mL of FACS buffer containing 2 μg/mL propidium iodide (PI) (Sigma, cat.: P4170) in order to exclude dead cells. […] For the calculation of KD, the equation for one-site-binding (hyperbola) was used.
For assay [13] the target is unchanged. The assay is described as above. The source holds these as a separate data set.
Method: as §1
In assay [14] the target is human CD16B ECD mutant H140Y fused to monomeric mFc.67 (human) (UniProt O75015). The assay can be described thus: ELISA, coated antigen-mFc.
The target of assay [15] is Human CD16B(NA1)^pr fused to IgG Fc (human) (UniProt O75015). The assay can be described thus: ELISA, coated antigen-IgG Fc.
For assay [16], the target named is T5, huCD16A (48R,158V), EGFRTM anchored (human, UniProt P08637;P00533).
T5 construct: extracellular domain;transmembrane domain; Expressed on recombinant CHO cells; one member of the group m39
The assay can be described thus: flow cytometry, MFI in cell binding to recombinant CHO cells; antigen EGFRTM anchored.

Assay [17] concerns the target T2, propeptide-containing ECD of CD16B(NA1) …. Described as above.
Assay [18] addresses T3, mature ECD of CD16B(NA1) expressed on …. The description is as above.
Assay [19] concerns the target human CD16B ECD mutant H140Y fused to monomeric mFc.67 (human) (UniProt O75015). Nature of the assay: ELISA, coated antigen-mFc, Protein L-HRP.
Assay [20] has as its target human CD16A(48R, 158V) ECD fused to monomeric mFc.67 (human) (UniProt P08637). Nature of the assay: ELISA, coated antigen-mFc, Protein L-HRP.

Where a chain is given by its changes, count along the chain named.

T3 sequence (O75015 other isoform, or with tags, fused parts or gaps): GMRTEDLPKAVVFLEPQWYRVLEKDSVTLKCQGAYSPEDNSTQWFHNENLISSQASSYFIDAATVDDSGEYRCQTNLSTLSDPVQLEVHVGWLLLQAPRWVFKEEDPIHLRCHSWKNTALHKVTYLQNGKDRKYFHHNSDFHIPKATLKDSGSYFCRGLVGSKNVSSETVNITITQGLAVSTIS
Sequence of human CD16A(48R, 158V) ECD fused to monomeric mFc.67 (human) (P08637 17-208 L66R/F176V): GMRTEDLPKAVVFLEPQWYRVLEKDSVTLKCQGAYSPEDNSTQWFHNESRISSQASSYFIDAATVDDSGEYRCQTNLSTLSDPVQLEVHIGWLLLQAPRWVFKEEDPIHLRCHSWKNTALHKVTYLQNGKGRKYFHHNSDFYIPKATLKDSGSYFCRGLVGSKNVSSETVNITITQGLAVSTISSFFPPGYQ
Sequence of Human CD16A^(48R, 158V) fused to IgG Fc (human) (P08637 17-208 L66R/F176V): as above
Sequence of Cynomolgus CD16A fused to IgG Fc (cynomolgus; human) (Q8SPW2 17-208): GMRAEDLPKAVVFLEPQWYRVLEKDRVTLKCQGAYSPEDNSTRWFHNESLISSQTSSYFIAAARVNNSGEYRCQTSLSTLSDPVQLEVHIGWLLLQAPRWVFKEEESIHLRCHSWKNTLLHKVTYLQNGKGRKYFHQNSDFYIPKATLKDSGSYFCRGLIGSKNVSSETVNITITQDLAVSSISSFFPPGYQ
Sequence of Human CD16A^(48R, 158F) fused to IgG Fc (human) (P08637 17-208 L66R): as the sequence (P08637 17-208 L66R/F176V) above, with V160F counted along it
Sequence of Human CD16B^H140Y fused to IgG Fc (human) (O75015 other isoform, or with tags, fused parts or gaps H140Y H140Y limits assumed): as the sequence (P08637 17-208 L66R/F176V) above, with S49N, R50L, I90V, G131D, F187S counted along it
Sequence of human CD16B ECD mutant H140Y fused to monomeric mFc.67 (human) (O75015 other isoform, or with tags, fused parts or gaps H140Y H140Y): as the sequence (P08637 17-208 L66R/F176V) above, with S49N, R50L, I90V, G131D, F187S counted along it
T2 sequence (O75015 other isoform, or with tags, fused parts or gaps): as the sequence (P08637 17-208 L66R/F176V) above, with S49N, R50L, I90V, G131D, Y142H, F187S counted along it
T1 sequence (P08637 17-254 limits assumed): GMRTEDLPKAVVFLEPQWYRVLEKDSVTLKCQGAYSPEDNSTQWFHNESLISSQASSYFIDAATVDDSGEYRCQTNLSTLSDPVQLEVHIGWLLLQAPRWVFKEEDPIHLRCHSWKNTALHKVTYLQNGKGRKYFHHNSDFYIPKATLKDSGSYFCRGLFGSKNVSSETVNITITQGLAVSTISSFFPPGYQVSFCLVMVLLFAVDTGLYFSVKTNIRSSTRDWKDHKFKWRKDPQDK
Sequence of Human CD16B(NA1)^pr fused to IgG Fc (human) (O75015 other isoform, or with tags, fused parts or gaps limits assumed): as the sequence (P08637 17-208 L66R/F176V) above, with S49N, R50L, I90V, G131D, Y142H, F187S counted along it
T5 sequence (P08637 other isoform, or with tags, fused parts or gaps limits assumed): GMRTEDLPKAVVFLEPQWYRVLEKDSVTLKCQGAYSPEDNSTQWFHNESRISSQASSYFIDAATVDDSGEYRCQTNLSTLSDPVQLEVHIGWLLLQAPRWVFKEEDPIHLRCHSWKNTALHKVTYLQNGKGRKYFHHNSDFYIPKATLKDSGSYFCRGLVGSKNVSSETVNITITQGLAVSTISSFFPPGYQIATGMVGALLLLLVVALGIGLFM

As a reminder, the EC50 (read off the curve) is the concentration that produces a half-maximal response. By EC50 is commonly meant the midpoint of the concentration-response curve. Higher therefore signals a need for much substance. Turning to “scFv antibody comprising the variable heavy and light chain sequences of antibody 3G8”, the EC50 (read off the curve) came out at 20 nM in assay [1] and 3 nM in [7]. Also, the concentration for a half-maximal effect (EC50) in assay [2] is 1 nM; in assay [3], 0.9 nM; in [4] it was 7.5 nM; in [5] it was 1.2 nM; in assay [6], 7.6 nM.

B1: scFv CD16A (CD16-3) (scFv)
scFv: QVQLVQSGAEVKKPGESLKVSCKASGYTFTNYYMQWVRQAPGQGLEWMGVINPGGGSTSYAQKFQGRVTMTRDTSTSTVYMELSSLRSEDTAVYYCARGSAYYYDFADYWGQGTLVTVSSGGSGGSGGSGGSGGSGGSSYVLTQPSSVSVAPGQTARITCGGHNIGSQSVHWYQQKPGQAPVLVIYQDSKRPSGIPERFSGSNSGNTATLTISGTQAMDEADYYCQVWDNYSVVFGGGTKLTVLAAAGSHHHHHH
As to B1, the concentration giving a half-maximal response (EC50) in assay [4] was found to be 1.4 nM; in assay [8], 1.3 nM; in assay [5] it was 1.2 nM; in [6] it was 1.2 nM.

B2: scFv CD16A (CD16-1) (scFv)
scFv: QVQLVQSGAEVKKPGESLKVSCKASGYTFTSYYMHWVRQAPGQGLEWMGIINPSGGSTSYAQKFQGRVTMTRDTSTSTVYMELSSLRSEDTAVYYCARGSAYYYDFADYWGQGTLVTVSSGGSGGSGGSGGSGGSGGSSYVLTQPSSVSVAPGQTATISCGGHNIGSKNVHWYQQRPGQSPVLVIYQDNKRPSGIPERFSGSNSGNTATLTISGTQAMDEADYYCQVWDNYSVLFGGGTKLTVLAAAGSHHHHHH
notes: also called LSIV21 scFv
For the molecule B2, the binding result in [9], in [10] and in assay [11] was “no binding” in each case. The concentration giving a half-maximal response (EC50 (read off the curve)) in assay [12] is ~40 nM. In addition, the EC50 in assay [4] came to 16.2 nM; in assay [8] it was 9.5 nM; in [5] it was 14.4 nM; in assay [6] it was 25.7 nM.

B3: scFv CD16A (CD16-2) (scFv)
scFv: B2 scFv with I50A, N52E, S54M, G55Y
notes: also called CD16-2 scFv
Take B3: the binding result in assay [9], in assay [10] and in [11] was “no binding” throughout. Moreover, the concentration giving a half-maximal response (EC50 (read off the curve)) in assay [1] was ~30 nM; in assay [13], ~10 nM. The EC50 in [14] amounted to 1.3 nM; in [2], 1.6 nM; in assay [4], 2.5 nM; in assay [8], 1.2 nM; in [5] it was 1.5 nM; in [6] it was 2.8 nM.

B4: scFv CD16A (CD16-5) (scFv)
scFv: QVQLVQSGAEVKKPGESLKVSCKASGYTFSSYYMHWVRQAPGQGLEWMGAIEPRGVRISYAQKFQGRVTMTRDTSTSTVYMELSSLRSEDTAVYYCARGSAYYYDFADYWGQGTLVTVSSGGSGGSGGSGGSGGSGGSSYVLTQPSSVSVAPGQTARITCGGHNIGSTNVHWYQQKPGQAPVLVIYQDSKRPSGIPERFSGSNSGNTATLTISGTQAMDEADYYCQVWDNYSVQFGGGTKLTVLAAAGSHHHHHH
Take B4: the concentration for a half-maximal effect (EC50) is 1.4 nM in [4]; 1.1 nM in assay [8]; 1.2 nM in [5]; 24.9 nM in [15]; 0.8 nM in assay [6].

B5: scFv CD16A (CD16-4) (scFv)
scFv: QVQLVQSGAEVKKPGESLKVSCKASGYSFSDFYIQWVRQAPGQGLEWMGIINPGGASTTYAQKFQGRVTMTRDTSTSTVYMELSSLRSEDTAVYYCARGSAYYYDFADYWGQGTLVTVSSGGSGGSGGSGGSGGSGGSSYVLTQPSSVSVAPGQTARITCGGYNIGRQSVHWYQQKPGQAPVLVIYQDSKRPSGIPERFSGSNSGNTATLTISGTQAMDEADYYCQVWDNYTVVFGGGTKLTVLAAAGSHHHHHH
For the molecule B5, the EC50 in assay [4] is 1.4 nM; in assay [8], 1.7 nM; in assay [5], 2.2 nM; in assay [6], 2.5 nM.

B6: EGFR-1/CD16-1 TandAb (CD16-1) (bispecific antibody)
chain: QVQLQESGPGLVKPSETLSLTCTVSGGSVSSGSYYWSWIRQPPGKGLEWIGYIYYSGSTNYNPSLKSRVTISVDTSKNQFSLKLSSVTAADTAVYYCARNPISIPAFDIWGQGTMVTVSSGGSGGSGGSSYVLTQPSSVSVAPGQTATISCGGHNIGSKNVHWYQQRPGQSPVLVIYQDNKRPSGIPERFSGSNSGNTATLTISGTQAMDEADYYCQVWDNYSVLFGGGTKLTVLGGSGGSQVQLVQSGAEVKKPGESLKVSCKASGYTFTSYYMHWVRQAPGQGLEWMGIINPSGGSTSYAQKFQGRVTMTRDTSTSTVYMELSSLRSEDTAVYYCARGSAYYYDFADYWGQGTLVTVSSGGSGGSGGSQPVLTQPPSVSVAPGKTARITCGGNNIGSKSVHWYQQKPGQAPVLVIYYDSDRPSGIPERFSGSNSGNTATLTISRVEAGDEADYYCQVWDTSSDHVLFGGGTKLTVLAAAGSHHHHHH
Take B6: the figures for the EC50 in [14] and in assay [2] were 0.5 nM and 0.6 nM, respectively.

B7: EGFR-1 scFv (scFv)
scFv: QVQLQESGPGLVKPSETLSLTCTVSGGSVSSGSYYWSWIRQPPGKGLEWIGYIYYSGSTNYNPSLKSRVTISVDTSKNQFSLKLSSVTAADTAVYYCARNPISIPAFDIWGQGTMVTVSSGGSGGSGGSGGSGGSGGSQPVLTQPPSVSVAPGKTARITCGGNNIGSKSVHWYQQKPGQAPVLVIYYDSDRPSGIPERFSGSNSGNTATLTISRVEAGDEADYYCQVWDTSSDHVLFGGGTKLTVLAAAGSHHHHHH
notes: also called scFv EGFR (EGFR-1); control scFv
Regarding B7, the binding result in assay [16], in assay [17] and in assay [18] was “no binding” in each case.

B8: BCMA-1/CD16-2 TandAb (CD16-2) (bispecific antibody)
chain: EVQLLESGGGLVQPGGSLRLSCAASGFTFSNYDMAWVRQAPGKGLEWVSSISTRGDITSYRDSVKGRFTISRDNSKNTLYLQMNSLRAEDTAVYYCARQDYYTDYMGFAYWGQGTLVTVSSGGSGGSGGSGGSSYVLTQPSSVSVAPGQTATISCGGHNIGSKNVHWYQQRPGQSPVLVIYQDNKRPSGIPERFSGSNSGNTATLTISGTQAMDEADYYCQVWDNYSVLFGGGTKLTVLGGSQVQLVQSGAEVKKPGESLKVSCKASGYTFTSYYMHWVRQAPGQGLEWMGAIEPMYGSTSYAQKFQGRVTMTRDTSTSTVYMELSSLRSEDTAVYYCARGSAYYYDFADYWGQGTLVTVSSGGSGGSGGSGGSAIQMTQSPSSLSASVGDRVTITCRASEDIYNGLAWYQQKPGKAPKLLIYGASSLQDGVPSRFSGSGSGTEFTLTISSLQPEDEATYYCAGPHKYPLTFGGGTKVEIK
Turning to B8, the concentration giving a half-maximal response (EC50) in assay [19] stood at 1.2 nM; in assay [20] it was 1.1 nM.

B9: scFv CD16A (CD16-7) (scFv)
scFv: QVQLVQSGAEVKKPGESLKVSCKASGYTFTNYYMHWVRQAPGQGLEWMGVIEPDGGRRTYAQKFQGRVTMTRDTSTSTVYMELSSLRSEDTAVYYCARGSAYYYDFADYWGQGTLVTVSSGGSGGSGGSGGSGGSGGSEIVLTQSPATLSLSPGERATLSCRGHQGVSGDVHWYQQKPGQAPRLLIYQANKRASGIPARFSGSGSGTEFTLTISSLEPEDFAVYYCQQWDNYSVTFGQGTKVEIKAAAGSHHHHHH
Regarding B9, the half-maximal effective concentration (EC50) is 1.6 nM in assay [4], 1.7 nM in assay [8], 1.8 nM in assay [5] and 2.4 nM in assay [6].
